Reference: the supplement of paper PMC10126150
± gives the standard deviation of the averaged measurements.

These sequences were tested on ATP (assay: switch fluorescence ratio, 500 uM ATP over buffer (Cy3 cluster intensity, sum of 5 cycles each) (fold (ratio)); higher = stronger signal-on switching upon ATP binding; sequences stand for … in TCGTCGGCAGCGTCAGATGTGTATAAGAGACAGTTTTTTTTTTTTTTTTTTTTTTTTT…TC). Conditions: aptamer strand: ATP DNA aptamer (quencher-CACCTGGGGGAGTATTGCGGAGGAAGG + anchor), 100 nM annealed; ATP concentration: 500 uM.
Method in brief: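 Exposure to 500 uM ATP lasted 15 min at 22 °C before imaging, and a selection-buffer image was taken beforehand, for Cy3-labelled switching-strand clusters on a modified Illumina MiSeq flow-cell annealed to 100 nM quencher-labelled ATP aptamer. Five buffer/ATP cycles were run with NaOH stripping and re-annealing between them. The fluorescence ratio per cluster is summed target-cycle over summed buffer-cycle Cy3 intensity, averaged per switch-domain sequence. Clusters outside 100-1000 RFU were excluded.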

Row | Sequence | switch fluorescence ratio
1 | GGGCTTGTCC | 0.98 ± 0.043
2 | GACAATTCGG | 1.01 ± 0.021
3 | TTTATGCAGC | 1.12 ± 0.16
4 | GCCTGCCCCG | 1.69 ± 0.026
5 | TATGTAATTG | 0.965 ± 0.058
6 | CAGTTTGATG | 1.003 ± 0.0083
7 | CTTGGTGACG | 1.09 ± 0.031
8 | GTTGTCTTTG | 1.01 ± 0.031
9 | TTTCAAGGGT | 0.9851 ± 0.0031
10 | CTGCTTGTGA | 1.02 ± 0.026
11 | CGATGGGCCT | 1.01 ± 0.024
12 | ATAAAGGGCG | 1.029 ± 0.01
13 | TGGGGGAAAT | 1.25 ± 0.74
14 | GTGAGGGATT | 1 ± 0.022
15 | GGAACGGGGG | 1.02 ± 0.014
16 | AGATTGAGCG | 1 ± 0.019
17 | GCAGTACGGC | 1.05 ± 0.033
18 | GGGGGCAGCA | 1.01 ± 0.04
19 | TGGGAATGCG | 1.013 ± 0.0026
20 | TGACCGAAGT | 1.043 ± 0.0028
21 | GGGATGAATA | 0.982 ± 0.042
22 | TCACTAAAAA | 0.979 ± 0.12
23 | ACGTATCTTG | 1.08 ± 0.038
24 | ATTTCAGTAA | 1.05 ± 0.027
25 | CTAACATCCG | 1.06 ± 0.025

Row | Sequence | switch fluorescence ratio
26 | TAACGCAGCT | 1.07 ± 0.073
27 | GAGTGCTGGG | 1.01 ± 0.011
28 | AAGTGGCCGT | 1.01 ± 0.041
29 | GGGAGGGGAG | 0.981 ± 0.019
30 | GTGGGATCCG | 0.998 ± 0.014
31 | GTGTAATTTG | 0.994 ± 0.036
32 | ATGTATTGGT | 0.991 ± 0.026
33 | TTTTTATTA | 1.001 ± 0.0052
34 | TGGGTTGTTG | 0.985 ± 0.038
35 | TAGGGGGAAC | 1.01 ± 0.022
36 | GGTTGATGTT | 0.969 ± 0.059
37 | AGGGAATAGG | 1.01 ± 0.041
38 | GCATTTTTAT | 1.02 ± 0.037
39 | GTTTGTCCGA | 1.01 ± 0.012
40 | ATTTCGTTCG | 0.977 ± 0.013
41 | ATCGGGCGTA | 1.01 ± 0.044
42 | CCCAATCGGT | 1.05 ± 0.027
43 | TTGAGTTTTT | 0.987 ± 0.024
44 | GGGGAACGGT | 1.03 ± 0.012
45 | CAGATTCTGT | 0.973 ± 0.023
46 | GAATATAATG | 0.978 ± 0.032
47 | AAGTGTTCAG | 0.982 ± 0.027
48 | TTTATCGGGA | 0.978 ± 0.017
49 | ATCATGAGTC | 0.972 ± 0.03
50 | GGGGATGGTT | 0.974 ± 0.03

Row | Sequence | switch fluorescence ratio
51 | TTTGTGTGGT | 0.978 ± 0.017
52 | CGAGTATTGG | 0.974 ± 0.018
53 | GTTCAGGGCT | 1.01 ± 0.02
54 | CGTGTTTTCC | 1.022 ± 0.0015
55 | GATATTGGGG | 0.981 ± 0.033
56 | TGTTGTTACC | 1.04 ± 0.022
57 | TGCCAGTGCC | 1.04 ± 0.022
58 | AGGCCACTGA | 1.034 ± 0.0011
59 | TTTTTACTAG | 1.007 ± 0.0023
60 | GCATGAGGGA | 0.993 ± 0.019
61 | CTAGTCTGAA | 0.982 ± 0.031
62 | TTTACGTGTT | 0.991 ± 0.012
63 | GGGTTAGGGG | 1.01 ± 0.04
64 | CCGTTGAAGG | 1.01 ± 0.016
65 | AACGGGATAT | 1.09 ± 0.0021
66 | GGGCAAACTT | 1.02 ± 0.018
67 | TTCGTGTGGT | 1 ± 0.019
68 | GTCACGTATT | 1.16 ± 0.0099
69 | CACGCATGTT | 1.09 ± 0.015
70 | GAGAACATGG | 1.03 ± 0.035
71 | TAGCGGCGT | 0.9938 ± 0.0097
72 | ATTGCCCTTA | 1.06 ± 0.071
73 | ACATTGGCTA | 1 ± 0.035
74 | TAGATGTCCG | 0.922 ± 0.098
75 | GGATTATGGC | 0.943 ± 0.061

Row | Sequence | switch fluorescence ratio
76 | GCGGGGGGGG | 1.02 ± 0.041
77 | AGTGGAACTT | 0.976 ± 0.036
78 | GATCGGGGCA | 0.97679 ± 0.00094
79 | CGTGCATGAG | 1.01 ± 0.02
80 | AGGTTTAAAC | 1.06 ± 0.063
81 | GCGTCCACCA | 1.03 ± 0.067
82 | ATTTAGTGGG | 0.993 ± 0.048
83 | TAGAAGTAGG | 1.01 ± 0.037
84 | TTTTTGGGCC | 0.994 ± 0.017
85 | TGGGAAAATT | 1 ± 0.033
86 | TGGGTAGAAG | 0.9916 ± 0.0014
87 | GGTTTATATT | 1.01 ± 0.05
88 | TGGATATAGA | 1.01 ± 0.017
89 | CAGTAAAGGA | 1.02 ± 0.053
90 | TTCTTGGGTT | 0.989 ± 0.031
91 | AATATGGTTT | 0.966 ± 0.02
92 | TGAGCGGGTA | 1.024 ± 0.0052
93 | GATTGAGCGT | 0.996 ± 0.017
94 | TGGTTTTTGC | 0.961 ± 0.057
95 | TTGGTCGTTT | 0.956 ± 0.038
96 | AGACAGCGAG | 1.015 ± 0.0021
97 | AGTGCTTGAG | 0.977 ± 0.043
98 | TTGTCATGAT | 1.006 ± 0.006
99 | CGGCATGCGG | 1.022 ± 0.0035
100 | AGTGGGGATA | 0.986 ± 0.039

Row | Sequence | switch fluorescence ratio
101 | AAGACACGC | 1.04 ± 0.042
102 | CCGTGTGACT | 1.08 ± 0.042
103 | AGGACAGGGT | 0.972 ± 0.011
104 | ACATTAAAAA | 1.26 ± 0.013
105 | TTAGGATTGG | 0.986 ± 0.025
106 | GCGGTTAAGG | 0.9577 ± 0.006
107 | CAAAGGAAGC | 1.02 ± 0.05
108 | TCTTTAAAGT | 1.04 ± 0.083
109 | TTCGTTGGGT | 0.986 ± 0.016
110 | GGGCTTTACG | 1.01 ± 0.011
111 | GGGGATTAAG | 0.971 ± 0.033
112 | AGACCGAGTT | 1.08 ± 0.096
113 | CTCGTGGTTT | 0.981 ± 0.024
114 | TTCGTTTTGC | 0.999 ± 0.035
115 | GATGTCCCCA | 0.959 ± 0.013
116 | ATTTGGATGT | 1 ± 0.026
117 | ACTGTTTTTT | 1.02 ± 0.018
118 | GAGGAAAGGC | 0.999 ± 0.058
119 | ATTGGTGGAG | 1.007 ± 0.0033
120 | GGGCTTGTAT | 1.03 ± 0.014
121 | CGTTGTGAGG | 1.03 ± 0.038
122 | CGTGGGGCGG | 0.999 ± 0.016
123 | TAGTAGGGGA | 1.01 ± 0.039
124 | GGGATCGTAA | 0.987 ± 0.016
125 | AAAGGACACA | 1.061 ± 0.01

Row | Sequence | switch fluorescence ratio
126 | CGTTCAGTTT | 0.9929 ± 0.0028
127 | GCCTGGTTGT | 1.02 ± 0.013
128 | ATTTGTTGG | 1.029 ± 0.0076
129 | TCAGCAGGGG | 2.67 ± 1.9
130 | GTTGCGGGTT | 1.01 ± 0.039
131 | CCTAGGGTGG | 1.03 ± 0.069
132 | TTTGTCGACC | 0.992 ± 0.0055
133 | ATGTATTCGC | 0.983 ± 0.014
134 | ATCGGCCATG | 0.988 ± 0.011
135 | GCAGCAGCTT | 1.01 ± 0.039
136 | GGCCATTTTT | 1.01 ± 0.03
137 | CGGGAATTTT | 1 ± 0.013
138 | TTTCAAAGGG | 0.994 ± 0.015
139 | CGGGGACGAC | 1.63 ± 0.72
140 | AAATGCTTCA | 1.03 ± 0.019
141 | ATGTTTTGCT | 0.965 ± 0.029
142 | TCCGGTTCCT | 1.07 ± 0.036
143 | TATAAAAGAC | 1.018 ± 0.01
144 | CGGTAGTTGT | 0.981 ± 0.014
145 | GTGGTACTGG | 0.9683 ± 0.0066
146 | ATGGTGAGGC | 0.95 ± 0.018
147 | GGGGTCGGGT | 0.99 ± 0.012
148 | CAAGGGGGGG | 0.99 ± 0.034
149 | TCGTTAGGTG | 1.03 ± 0.025
150 | TTAGAATTCC | 1.1 ± 0.091

Row | Sequence | switch fluorescence ratio
151 | AGGAGGGTTA | 1 ± 0.028
152 | GAGGAGAAGA | 1.02 ± 0.027
153 | CTAAGATCGG | 1 ± 0.02
154 | ATATTTGGTT | 0.985 ± 0.034
155 | TAGGGGTGTT | 1.06 ± 0.12
156 | AGGCTTAAAT | 0.989 ± 0.025
157 | TCTAGTGGTT | 1 ± 0.019
158 | TTGCGTTGTT | 0.9695 ± 0.0043
159 | GCGTGCATTC | 1.05 ± 0.017
160 | CGACCCTGGA | 1.105 ± 0.01
161 | ATGGTTCGCG | 1 ± 0.015
162 | TTTTAACTTT | 1.03 ± 0.052
163 | TTGTGGTTCC | 1.08 ± 0.14
164 | TGTTAACGGT | 0.991 ± 0.071
165 | AAATCTCATC | 1.03 ± 0.014
166 | CAGTTAATTG | 1.03 ± 0.013
167 | CTAAAGGACT | 0.9989 ± 0.0015
168 | CGTGGGGGTT | 0.973 ± 0.038
169 | TTGGTGGTGG | 1.01 ± 0.053
170 | ACCAGGGCTT | 1.08 ± 0.021
171 | GGAAAGATTG | 0.991 ± 0.041
172 | GAGAGTGAAT | 1.01 ± 0.081
173 | TGACGCATAG | 1.7 ± 0.12
174 | ATCATGTGTA | 1.01 ± 0.04
175 | GACCATGGGG | 1.07 ± 0.098

Row | Sequence | switch fluorescence ratio
176 | TCTTAAGAGT | 0.9987 ± 0.0022
177 | TTGTGGGGGC | 0.991 ± 0.038
178 | TCGGTTGTGT | 1.08 ± 0.078
179 | GTGGGGCCGC | 0.979 ± 0.036
180 | GGTCAAACCC | 1.032 ± 0.0044
181 | GGTCCCCAAT | 1 ± 0.013
182 | TATGGTTACG | 0.9997 ± 0.0022
183 | AAGGGGACTT | 1.02 ± 0.037
184 | TTTTTTTGGG | 1 ± 0.036
185 | TTTTTAAACT | 0.9921 ± 0.0076
186 | GGCGGGAAAG | 0.983 ± 0.037
187 | TTTTTGGCAG | 0.971 ± 0.024
188 | AGGGGGTAAA | 0.975 ± 0.021
189 | CCATATTTGG | 1.033 ± 0.0063
190 | TATATAGCGC | 0.983 ± 0.044
191 | AGGGGGCGAT | 1.01 ± 0.039
192 | TATAACATG | 1.009 ± 0.0025
193 | TGGTTAGGGG | 1.06 ± 0.084
194 | CTTTTGGCCT | 1.03 ± 0.038
195 | TACGAGGTGT | 1.06 ± 0.027
196 | TTTAGTACCT | 1.2 ± 0.044
197 | AAGTTTGATA | 0.981 ± 0.058
198 | GACTAGGCCT | 0.988 ± 0.02
199 | GGTCTGAAGT | 1.008 ± 0.004
200 | AATTATGGTG | 1.01 ± 0.012
